Positions count from the first letter of the chain named.
B1: 10518 (protein)
chain: MALPVTALLLPLALLLHAARPEVQLVESGGGLVQPGGSLRLSCAASGYTFSDYFMSWVRQAPGKGLEWVATISNGGTYTYYPDSVKGRFTISRDNSKNTLYLQMNSLRAEDTAVYYCARFDGYIFDYWGQGTLVTVSSGGGGSGGGGSGGGGSDIQMTQSPSSLSASVGDRVTITCRASQDISNYLNWYQQKPGKAPKLLIYYTSRLHSGVPSRFSGSGSGTDFTLTISSLQPEDFATYYCQQGNTLPYTFGQGTKVEIKRTREQKLISEEDLAKPTTTPAPRPPTPAPTIASQPLSLRPEACRPAAGGAVHTRGLDFACDIYIWAPLAGTCGVLLLSLVITLYCKRGRKKLLYIFKQPFMRPVQTTQEEDGCSCRFPEEEEGGCELRVKFSRSADAPAYQQGQNQLYNELNLGRREEYDVLDKRRGRDPEMGGKPRRKNPQEGLYNELQKDKMAEAYSEIGMKGERRRGKGHDGLYQGLSTATKDTYDALHMQALPPR
modifications: Synthetic Polynucloetide
B2: 10587 (protein)
chain: B1 chain with Y48F, N184S
modifications: Synthetic Polynucloetide
B3: 10656 (protein)
chain: B1 chain with Y48F, Y249W
modifications: Synthetic Polynucloetide
B4: 10315 (protein)
chain: MALPVTALLLPLALLLHAARPDIQMTQSPSSLSASVGDRVTITCKSSQSLLYSSNQKNYLAWFQQKPGKAPKLLIYWASTRESGVPSRFSGSGSGTDFTLTISSLQPEDFATYFCHQYLSSYTFGQGTKVEIKRLEDLKNVFPPEVAVFEPSEAEISHTQKATLVCLATGFYPDHVELSWWVNGKEVHSGVCTDPQPLKEQPALNDSRYCLSSRLRVSATFWQNPRNHFRCQVQFYGLSENDEWTQDRAKPVTQIVSAEAWGRADCGFTSESYQQGVLSATILYEILLGKATLYAVLVSALVLMAMVKRKDSRGRAKRSGSGATNFSLLKQAGDVEENPGPTSMDWIWRILFLVGAATGAHSFEEVQLVESGGGLVQPGGSLRLSCAASGYTFTSYWLHWVRQAPGKGLEWVGYIRPSTGYTEYNQKFKDRFTISADTSKNTAYLQMNSLRAEDTAVYYCARSRWLLDYWGQGTLVTVSSTRIQNPDPAVYQLRDSKSSDKSVCLFTDFDSQTNVSQSKDSDVYITDKCVLDMRSMDFKSNSAVAWSNKSDFACANAFNNSIIPEDTFFPSPESSCDVKLVEKSFETDTNLNFQNLSVIGFRILLLKVAGFNLLMTLRLWSS
modifications: Synthetic Polynucloetide
B5: 10384 (protein)
chain: MALPVTALLLPLALLLHAARPDIQMTQSPSSLSASVGDRVTITCKSSQSVLYSSNQKNYLAWFQQKPGKAPKLLIYWASTRESGVPSRFSGSGSGTDFTLTISSLQPEDFATYFCHQYLSSYTFGQGTKVEIKRLEDLKNVFPPEVAVFEPSEAEISHTQKATLVCLATGFYPDHVELSWWVNGKEVHSGVCTDPQPLKEQPALNDSRYCLSSRLRVSATFWQNPRNHFRCQVQFYGLSENDEWTQDRAKPVTQIVSAEAWGRADCGFTSESYQQGVLSATILYEILLGKATLYAVLVSALVLMAMVKRKDSRGRAKRSGSGATNFSLLKQAGDVEENPGPTSMDWIWRILFLVGAATGAHSFEEVQLVESGGGLVQPGGSLRLSCAASGFTFTTYWMHWVRQAPGKGLEWVGYIRPSTGYTEYNQKFKDRFTISADTSKNTAYLQMNSLRAEDTAVYYCARSRWLLDYWGQGTLVTVSTRIQNPDPAVYQLRDSKSSDKSVCLFTDFDSQTNVSQSKDSDVYITDKCVLDMRSMDFKSNSAVAWSNKSDFACANAFNNSIIPEDTFFPSPESSCDVKLVEKSFETDTNLNFQNLSVIGFRILLLKVAGFNLLMTLRLWSS
modifications: Synthetic Polynucloetide
B6: 10453 (protein)
chain: MALPVTALLLPLALLLHAARPEVQLVESGGGLVQPGGSLRLSCAASGYTFTTYWMHWVRQAPGKGLEWVGYIRPSTGYTEYNQKFKDRFTISADTSKNTAYLQMNSLRAEDTAVYYCARSRWLLDYWGQGTLVTVSLEDLKNVFPPEVAVFEPSEAEISHTQKATLVCLATGFYPDHVELSWWVNGKEVHSGVCTDPQPLKEQPALNDSRYCLSSRLRVSATFWQNPRNHFRCQVQFYGLSENDEWTQDRAKPVTQIVSAEAWGRADCGFTSESYQQGVLSATILYEILLGKATLYAVLVSALVLMAMVKRKDSRGRAKRSGSGATNFSLLKQAGDVEENPGPTSMDWIWRILFLVGAATGAHSFEDIQMTQSPSSLSASVGDRVTITCKSSQSLLYSSNQKNYLAWFQQKPGKAPKLLIYWASTRESGVPSRFSGSGSGTDFTLTISSLQPEDFATYFCHQYLSSYTFGQGTKVEIKRTRIQNPDPAVYQLRDSKSSDKSVCLFTDFDSQTNVSQSKDSDVYITDKCVLDMRSMDFKSNSAVAWSNKSDFACANAFNNSIIPEDTFFPSPESSCDVKLVEKSFETDTNLNFQNLSVIGFRILLLKVAGFNLLMTLRLWSS
modifications: Synthetic Polynucloetide
B7: 10522 (protein)
chain: MALPVTALLLPLALLLHAARPDIQMTQSPSSLSASVGDRVTITCRASQDISNYLNWYQQKPGKAPKLLIYYTSRLHSGVPSRFSGSGSGTDFTLTISSLQPEDFATYYCQQGNTLPYTFGQGTKVEIKRLEDLKNVFPPEVAVFEPSEAEISHTQKATLVCLATGFYPDHVELSWWVNGKEVHSGVCTDPQPLKEQPALNDSRYCLSSRLRVSATFWQNPRNHFRCQVQFYGLSENDEWTQDRAKPVTQIVSAEAWGRADCGFTSESYQQGVLSATILYEILLGKATLYAVLVSALVLMAMVKRKDSRGRAKRSGSGATNFSLLKQAGDVEENPGPTSMDWIWRILFLVGAATGAHSFEEVQLVESGGGLVQPGGSLRLSCAASGYTFSDYFMSWVRQAPGKGLEWVATISNGGTYTYYPDSVKGRFTISRDNSKNTLYLQMNSLRAEDTAVYYCARFDGYIFDYWGQGTLVTVSSTRIQNPDPAVYQLRDSKSSDKSVCLFTDFDSQTNVSQSKDSDVYITDKCVLDMRSMDFKSNSAVAWSNKSDFACANAFNNSIIPEDTFFPSPESSCDVKLVEKSFETDTNLNFQNLSVIGFRILLLKVAGFNLLMTLRLWSS
modifications: Synthetic Polynucloetide
B8: 10591 (protein)
chain: B7 chain with N52S, Y386F
modifications: Synthetic Polynucloetide
B9: 10660 (protein)
chain: B7 chain with Y117W, Y386F
modifications: Synthetic Polynucloetide

tested on: SKOV3-Luc cells; test: SKOV3 xenograft in NSG mice; conditions: 1 × 10^6 SKOV3-Luc s.c., a week later 3 × 10^6 SAR-T i.v.

Q: For B1, which “tumor inhibition / protection, SKOV3 xenograft” value (“tumor inhibition / protection” for short) is on record?
A: weak protection

Q: B2 was tested. Which “tumor inhibition / protection” value did it give?
A: weak protection

Q: How did the “tumor inhibition / protection” value turn out when B3 was run?
A: weak protection

Q: With B4 as the molecule, how does the “tumor inhibition / protection” value read?
A: tumor inhibition

Q: Which “tumor inhibition / protection” value does the source give for B5 here?
A: tumor inhibition

Q: For B6, which “tumor inhibition / protection” value is on record?
A: tumor inhibition

Q: B7 was tested. Which “tumor inhibition / protection” value did it give?
A: tumor inhibition

Q: Which “tumor inhibition / protection” value does the source give for B8 here?
A: tumor inhibition

Q: Which “tumor inhibition / protection” value does the source give for B9 here?
A: tumor inhibition

same assay, conditions: mouse, in vivo

Q: B4 was tested. Which “survival, SKOV3 xenograft” value did it give?
A: improvement in survival

Q: B5 was tested. Which “survival, SKOV3 xenograft” value did it give?
A: improvement in survival

Q: With B6 as the molecule, how does the “survival, SKOV3 xenograft” value read?
A: improvement in survival

Q: B7 was tested. Which “survival, SKOV3 xenograft” value did it give?
A: improvement in survival

Q: For B8, which “survival, SKOV3 xenograft” value is on record?
A: improvement in survival

Q: With B9 as the molecule, how does the “survival, SKOV3 xenograft” value read?
A: improvement in survival

Reference: patent publication US20230212319A1, “NOVEL ANTIGEN BINDING DOMAINS AND SYNTHETIC ANTIGEN RECEPTORS INCORPORATING THE SAME” (University of Southern California, priority 2020, published 2023)
